Results: US20170283470A1 (OXFORD NANOPORE TECHNOLOGIES, published 2017)

B1: CsgE (periplasmic accessory factor CsgE, his-tagged, CsgE-his) (other)
chain: VEVEVPGLLTDHTVSSIGHDFYRAFSDKWESDYTGNLTINERPSARWGSWITITVNQDVIFQTFLFPLKRDFEKTVVFALIQTEEALNRRQINQALLSTGDLAHDEF
notes: Added as purified monomeric CsgE; also called specificity factor CsgE; not shown: his tag (CsgE-his from pNH27)
B2: CsgG (wild-type E. coli CsgG, outer membrane localized, C-terminally StrepII-tagged, membrane-extracted nonameric pore) (other)
chain: CLTAPPKEAARPTLMPRAQSYKDLTHLPAPTGKIFVSVYNIQDETGQFKPYPASNFSTAVPQSATAMLVTALKDSRWFIPLERQGLQNLLNERKIIRAAQENGTVAINNRIPLQSLTAANIMVEGSIIGYESNVKSGGVGARYFGIGADTQYQLDQIAVNLRVVNVSTGEILSSVNTSKTILSYEVQAGVFRFIDYQRLLEGEVGYTSNEPVMLCLMSAIETGVIFLINDGIDRGLWDLQNKAERQNDILVKYRHMSVPPES
modifications: N-terminal Cys of the mature protein triacylated (lipidated), as described in paragraph 145
notes: Produced from pPG1 in E. coli BL21(DE3) and extracted from outer membranes with detergent; It was amphipol A8-35-solubilized for native PAGE and EM, and reconstituted in planar phospholipid bilayers for single-channel recordings; also called CsgG channel; CsgG pore; not shown: C-terminal StrepII tag of construct pPG1

Key:
[1] = molecular target: B2; assay: SYPRO orange fluorescence of CsgE and CsgG bands on SDS-PAGE of the complex band cut from native PAGE
[2] = molecular target: the molecule itself; assay: crystal structure, size-exclusion chromatography, EM and single-channel recordings

B1
CsgG/CsgE ratio (stoichiometry of the complex) [1]: 0.97

B2
binding result [2]: binds
